# Experimental data from IntAct's records for PubMed 27754869.
# B1: Natural cytotoxicity triggering receptor 3 (Homo sapiens), O14931 (parent)
# chain: MAWMLLLILIMVHPGSCALWVSQPPEIRTLEGSSAFLPCSFNASQGRLAIGSVTWFRDEVVPGKEVRNGTPEFRGRLAPLASSRFLHDHQAELHIRDVRGHDASIYVCRVEVLGLGVGTGNGTRLVVEKEHPQLGAGTVLLLRAGFYAVSFLSVAVGSTVYYQGKCLTWKGPRRQLPAVVPAPLPPPCGSSAHLLPPVPGG
# Variants of: B1
# Conditions: with BAG6, P46379-2
# Chain of BAG6, P46379-2 (P46379 other isoform, or with tags, fused parts or gaps): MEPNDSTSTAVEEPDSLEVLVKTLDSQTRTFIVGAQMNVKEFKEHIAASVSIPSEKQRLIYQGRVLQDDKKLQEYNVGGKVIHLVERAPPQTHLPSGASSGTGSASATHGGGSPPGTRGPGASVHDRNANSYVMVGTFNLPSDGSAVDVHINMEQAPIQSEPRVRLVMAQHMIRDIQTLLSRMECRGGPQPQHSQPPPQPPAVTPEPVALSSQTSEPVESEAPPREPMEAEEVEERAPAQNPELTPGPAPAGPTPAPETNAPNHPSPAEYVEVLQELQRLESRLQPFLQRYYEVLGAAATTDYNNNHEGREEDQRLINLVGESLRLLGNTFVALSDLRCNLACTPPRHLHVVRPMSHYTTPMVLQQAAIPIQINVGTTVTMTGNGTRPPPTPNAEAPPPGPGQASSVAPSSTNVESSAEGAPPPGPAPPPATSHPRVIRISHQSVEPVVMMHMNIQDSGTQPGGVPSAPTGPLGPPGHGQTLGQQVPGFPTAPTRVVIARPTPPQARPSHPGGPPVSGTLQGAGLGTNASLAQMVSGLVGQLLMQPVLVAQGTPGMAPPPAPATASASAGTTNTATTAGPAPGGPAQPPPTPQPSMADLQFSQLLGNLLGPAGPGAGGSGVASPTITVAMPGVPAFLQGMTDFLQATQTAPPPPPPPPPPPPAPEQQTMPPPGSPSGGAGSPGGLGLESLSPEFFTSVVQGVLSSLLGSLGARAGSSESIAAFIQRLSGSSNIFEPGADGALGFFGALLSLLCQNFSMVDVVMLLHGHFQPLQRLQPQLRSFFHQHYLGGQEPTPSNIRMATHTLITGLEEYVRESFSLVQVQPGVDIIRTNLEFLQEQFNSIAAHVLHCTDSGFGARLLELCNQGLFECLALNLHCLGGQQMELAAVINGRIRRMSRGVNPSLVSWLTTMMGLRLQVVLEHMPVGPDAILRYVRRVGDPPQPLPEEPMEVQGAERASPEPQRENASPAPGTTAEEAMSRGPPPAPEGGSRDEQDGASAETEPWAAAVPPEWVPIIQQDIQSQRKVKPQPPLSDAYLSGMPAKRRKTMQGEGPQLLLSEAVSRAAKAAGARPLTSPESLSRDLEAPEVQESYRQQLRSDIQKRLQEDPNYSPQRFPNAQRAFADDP
row,Variant,effect of a mutation on the interaction
1,MAWMLLLILIMVHPGSCALWVSQPPEIRTLEGSSAFLPCSFNASQGRLAIGSVTWFRDEVVPGKEVRNGTPEFRGRLAPLASSRFLHDHQAELHIRDVRGHDASIYVCRVEVLGLGVGTGNGTRLVVEAEHPQLGAGTVLLLRAGFYAVSFLSVAVGSTVYYQGKCLTWKGPRRQLPAVVPAPLPPPCGSSAHLLPPVPGG [K129A],decreasing interaction strength
2,MAWMLLLILIMVHPGSCALWVSQPPEIRTLEGSSAFLPCSFNASQGRLAIGSVTWFRDEVVPGKEVRNGTPEFRGRLAPLASSRFLHDHQAELHIRDVRGHDASIYVCRVEVLGLGVGTGNGTRLVVEKAHPQLGAGTVLLLRAGFYAVSFLSVAVGSTVYYQGKCLTWKGPRRQLPAVVPAPLPPPCGSSAHLLPPVPGG [E130A],increasing interaction strength
3,MAWMLLLILIMVHPGSCALWVSQPPEIRTLEGSSAFLPCSFNASQGRLAIGSVTWFRDEVVPGKEVRNGTPEFRGRLAPLASSRFLHDHQAELHIRDVRGHDASIYVCRVEVLGLGVGTGNGTRLVVEKEAPQLGAGTVLLLRAGFYAVSFLSVAVGSTVYYQGKCLTWKGPRRQLPAVVPAPLPPPCGSSAHLLPPVPGG [H131A],with no effect
4,MAWMLLLILIMVHPGSCALWVSQPPEIRTLEGSSAFLPCSFNASQGRLAIGSVTWFRDEVVPGKEVRNGTPEFRGRLAPLASSRFLHDHQAELHIRDVRGHDASIYVCRVEVLGLGVGTGNGTRLVVEKEHAQLGAGTVLLLRAGFYAVSFLSVAVGSTVYYQGKCLTWKGPRRQLPAVVPAPLPPPCGSSAHLLPPVPGG [P132A],with no effect
5,MAWMLLLILIMVHPGSCALWVSQPPEIRTLEGSSAFLPCSFNASQGRLAIGSVTWFRDEVVPGKEVRNGTPEFRGRLAPLASSRFLHDHQAELHIRDVRGHDASIYVCRVEVLGLGVGTGNGTRLVVEKEHPALGAGTVLLLRAGFYAVSFLSVAVGSTVYYQGKCLTWKGPRRQLPAVVPAPLPPPCGSSAHLLPPVPGG [Q133A],with no effect
6,MAWMLLLILIMVHPGSCALWVSQPPEIRTLEGSSAFLPCSFNASQGRLAIGSVTWFRDEVVPGKEVRNGTPEFRGRLAPLASSRFLHDHQAELHIRDVRGHDASIYVCRVEVLGLGVGTGNGTRLVVEKEHPQAGAGTVLLLRAGFYAVSFLSVAVGSTVYYQGKCLTWKGPRRQLPAVVPAPLPPPCGSSAHLLPPVPGG [L134A],with no effect
7,MAWMLLLILIMVHPGSCALWVSQPPEIRTLEGSSAFLPCSFNASQGRLAIGSVTWFRDEVVPGKEVRNGTPEFRGRLAPLASSRFLHDHQAELHIRDVRGHDASIYVCRVEVLGLGVGTGNGTRLVVEKEHPQLAAGTVLLLRAGFYAVSFLSVAVGSTVYYQGKCLTWKGPRRQLPAVVPAPLPPPCGSSAHLLPPVPGG [G135A],increasing interaction strength
8,MAWMLLLILIMVHPGSCALWVSQPPEIRTLEGSSAFLPCSFNASQGRLAIGSVTWFRDEVVPGKEVRNGTPEFRGRLAPLASSRFLHDHQAELHIRDVRGHDASIYVCRVEVLGLGVGTGNGTRLVVEKEHPQLGAATVLLLRAGFYAVSFLSVAVGSTVYYQGKCLTWKGPRRQLPAVVPAPLPPPCGSSAHLLPPVPGG [G137A],with no effect
9,MAWMLLLILIMVHPGSCALWVSQPPEIRTLEGSSAFLPCSFNASQGRLAIGSVTWFRDEVVPGKEVRNGTPEFRGRLAPLASSRFLHDHQAELHIRDVRGHDASIYVCRVEVLGLGVGTGNGTRLVVEKEHPQLGAGAVLLLRAGFYAVSFLSVAVGSTVYYQGKCLTWKGPRRQLPAVVPAPLPPPCGSSAHLLPPVPGG [T138A],increasing interaction strength
10,MAWMLLLILIMVHPGSCALWVSQPPEIRTLEGSSAFLPCSFNASQGRLAIGSVTWFRDEVVPGKEVRNGTPEFRGRLAPLASSRFLHDHQAELHIRDVRGHDASIYVCRVEVLGLGVGTGNGTRLVVEKEHPQLGAGTALLLRAGFYAVSFLSVAVGSTVYYQGKCLTWKGPRRQLPAVVPAPLPPPCGSSAHLLPPVPGG [V139A],with no effect
11,MAWMLLLILIMVHPGSCALWVSQPPEIRTLEGSSAFLPCSFNASQGRLAIGSVTWFRDEVVPGKEVRNGTPEFRGRLAPLASSRFLHDHQAELHIRDVRGHDASIYVCRVEVLGLGVGTGNGTRLVVEKEHPQLGAGTVALLRAGFYAVSFLSVAVGSTVYYQGKCLTWKGPRRQLPAVVPAPLPPPCGSSAHLLPPVPGG [L140A],with no effect
12,MAWMLLLILIMVHPGSCALWVSQPPEIRTLEGSSAFLPCSFNASQGRLAIGSVTWFRDEVVPGKEVRNGTPEFRGRLAPLASSRFLHDHQAELHIRDVRGHDASIYVCRVEVLGLGVGTGNGTRLVVEKEHPQLGAGTVLALRAGFYAVSFLSVAVGSTVYYQGKCLTWKGPRRQLPAVVPAPLPPPCGSSAHLLPPVPGG [L141A],decreasing interaction strength
13,MAWMLLLILIMVHPGSCALWVSQPPEIRTLEGSSAFLPCSFNASQGRLAIGSVTWFRDEVVPGKEVRNGTPEFRGRLAPLASSRFLHDHQAELHIRDVRGHDASIYVCRVEVLGLGVGTGNGTRLVVEKEHPQLGAGTVLLARAGFYAVSFLSVAVGSTVYYQGKCLTWKGPRRQLPAVVPAPLPPPCGSSAHLLPPVPGG [L142A],decreasing interaction strength
14,MAWMLLLILIMVHPGSCALWVSQPPEIRTLEGSSAFLPCSFNASQGRLAIGSVTWFRDEVVPGKEVRNGTPEFRGRLAPLASSRFLHDHQAELHIRDVRGHDASIYVCRVEVLGLGVGTGNGTRLVVEKEHPQLGAGTVLLLAAGFYAVSFLSVAVGSTVYYQGKCLTWKGPRRQLPAVVPAPLPPPCGSSAHLLPPVPGG [R143A],decreasing interaction strength
